The source of these data is article PMC2788937 (Science signaling, 2009).

No end group written: not given here.

Assay [1] concerns the target FLAG-tagged human β2-adrenergic receptor (human, UniProt P07550 1-413). As to the kind of experiment: pull-down.
The target in another assay is GST-β2AR(330–413) (human, UniProt P07550 330-413). As to the kind of experiment: pull-down.

Consider LRGDQITWIGGNEEGCEAISFLLSLIDRLVLYCGSRLGKYYVKE (domain or fragment, human, UniProt Q9H6Z9 73-116, looked up) [GST-EGLN3^(73-116)], for which the binding result in assay [1] is reported as “binds”.

As for EAISFLLSLIDRLVLY (also: FITC label, position not given here) [FITC-labeled peptide derived from human EGLN3(89–104)], the binding result with GST-β2AR(330–413) is on record as “binds”.
